The target of this assay is ADDomer-SpyTag (human adenovirus type 3). Nature of the assay: covalent SpyTag/SpyCatcher adduct on SDS-PAGE.

Substance SpyCatcher gave a stoichiometry N (copies per particle) of 60.

(Values after paper PMC8828441.)
